# Measured values from patent publication US20250043302A1, “MUTATED HYDROXYPHENYLPYRUVATE DIOXYGENASE POLYPEPTIDE, AND CODING GENE AND USE THEREOF” (BEIJING DABEINONG BIOTECHNOLOGY CO., LTD., priority 2021, published 2025).
# Key:
# [1] = test system: Arabidopsis thaliana T1 plants; test: Mesotrione tolerance of transgenic Arabidopsis thaliana T1 plants (spray, bleached leaf area grade, damage score); assay type: in vivo; set-up: Scores: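 damage score 0-100 computed as Σ(N×S)/(T×M)×100 over grades 0-3 with higher meaning more damage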; settings: for Classification and statistics of the grade of pesticide damage: Grade 0 / Classification and statistics of the grade of pesticide damage: Grade 1 / Classification and statistics of the grade of pesticide damage: Grade 2 / Classification and statistics of the grade of pesticide damage: Grade 3: number of plants
# Procedure, shortened: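 Read-out: per-plant damage grade 0–3 from proportion of bleached leaf area at 7 DAT (1 <50%, 2 >50%, 3 100%). Plants were T1 transformants, glufosinate-selected, plus wild-type CK, sprayed 18 days post-sowing. Rates: topramezone 25–200, isoxaflutole 35–280, mesotrione 52.5–420 g ai/ha.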
# [2] = test system: Arabidopsis thaliana T1 plants; test: Topramezone tolerance of transgenic Arabidopsis thaliana T1 plants (spray, bleached leaf area grade, damage score); assay type: in vivo; settings: for Classification and statistics of the grade of pesticide damage: Grade 0 / Classification and statistics of the grade of pesticide damage: Grade 1 / Classification and statistics of the grade of pesticide damage: Grade 2 / Classification and statistics of the grade of pesticide damage: Grade 3: number of plants; for Classification and statistics of the grade of pesticide damage: Grade 0 / Classification and statistics of the grade of pesticide damage: Grade 1 / Classification and statistics of the grade of pesticide damage: Grade 2 / Classification and statistics of the grade of pesticide damage: Grade 3 / Scores / Resistance evaluation: 7 DAT, Table 1; for Scores: pesticide damage score 0-100
# From the text: T1 transformants were initially selected from the untransformed seeds using a glufosinate selection scheme. The Arabidopsis thaliana T1 plants (AsHPPD-02) into which the AsHPPD-02 nucleotide sequence was introduced, the Arabidopsis thaliana T1 plants (AsHPPDm-F372A-02) into which the AsHPPDm-F372A-02 nucleotide sequence was introduced, the Arabidopsis thaliana T1 plants (AsHPPDm-F383W-02) into which the AsHPPDm-F383W-02 nucleotide sequence was introduced, the Arabidopsis thaliana T1 plants (AsHPPDm-F372A-F383W-02) into which the AsHPPDm-F372A-F383W-02 nucleotide sequence was introduced, the Arabidopsis thaliana T1 plants (DBN11726N) into which the control recombinant expression vector DBN11726N was introduced, and the wild-type Arabidopsis thaliana plants (CK) (18 days after sowing) were sprayed respectively with topramezone at three concentrations (100 g ai/ha (four-fold field concentration, 4×), 200 g ai/ha (eight-fold field concentration, 8×), and 0 g ai/ha (water, 0×)), isoxaflutole at three concentrations (140 g ai/ha (two-fold field concentration, 2×), 280 g ai/ha (four-fold field concentration, 4×), and 0 g ai/ha (water, 0×)), and mesotrione at three concentrations (210 g ai/ha (two-fold field concentration, […]), 420 g ai/ha (four-fold field concentration, 4×), and 0 g ai/ha (water, 0×)), to determine the tolerance of Arabidopsis thaliana to the herbicides. The degree of damage caused by the herbicide was measured for each plant according to the proportion of bleached leaf area (the proportion of bleached leaf area=bleached leaf area/total leaf area×100%) 7 days after spraying (7 DAT): the case where there is basically no bleached phenotype is defined as grade 0, the case where the proportion of bleached leaf area is less than 50% is defined as grade 1, the case where the proportion of bleached leaf area is more than 50% is defined as grade 2, and the case where the proportion of bleached leaf area is 100% grade is defined as grade 3.
# According to the method as described above in point 6 of Example 1, the aforementioned Arabidopsis thaliana T1 plants and wild-type Arabidopsis thaliana plants (CK) (18 days after sowing) were sprayed respectively with topramezone at three concentrations (25 g ai/ha (one-fold field concentration, 1×). 100 g ai/ha (four-fold field concentration, 4×), and 0 g ai/ha (water, 0×)), isoxaflutole at three concentrations (35 g ai/ha (half-fold field concentration, 0.5×). 70 g ai/ha (one-fold field concentration, 1×), and 0 g ai/ha (water, 0×)), and mesotrione at three concentrations (52.5 g ai/ha (half-fold field concentration, 0.5×), 105 g ai/ha (one-fold field concentration, 1×), and 0 g ai/ha (water, 0×)) to detect the tolerance of Arabidopsis thaliana to the herbicides.
# According to the method as described above in point 6 of Example 1, the aforementioned Arabidopsis thaliana T1 plants and wild-type Arabidopsis thaliana plants (CK) (18 days after sowing) were sprayed with topramezone at three different concentrations (i.e., 100 g ai/ha (four-fold field concentration, 4×), 200 g ai/ha (eight-fold field concentration, 8×) and 0 g ai/ha (water, 0×)), isoxaflutole at three different concentrations (i.e., 140 g ai/ha (two-fold field concentration, 2×), 280 g ai/ha (four-fold field concentration, 4×) and 0 g ai/ha (water, 0×)), and mesotrione at three different concentrations (i.e., 210 g ai/ha (two-fold field concentration, 2×), 420 g ai/ha (four-fold field concentration, 4×) and 0 g ai/ha (water, 0×)) respectively to detect the herbicide tolerance of Arabidopsis thaliana. […]
# [3] = mesotrione 210 g ai/ha, number of plants in grade
# [4] = mesotrione 420 g ai/ha (4×), 7 DAT, Table 3
# [5] = mesotrione 420 g ai/ha, number of plants in grade
# [6] = mesotrione 210 g ai/ha (two-fold field concentration), 7 DAT, Table 3
molecule,measurement,setting,value
"AsHPPDm-F372A-02: nucleotide sequence encoding Avena sativa HPPD with F372A; vector DBN11728 (nucleic acid, AsHPPDm-F372A-02 Nucleotide Sequence, vector DBN11728) DNA: ATGCCACCTACTCCAGCTACAGCTACTGGTGCTGCTGCTGCTGCCGTTACTCCTGAGCACGCTGCCAGGTCATTCCCCAGGGTGGTTCGCGTGAACCCCAGATCTGATAGGTTCCCAGTTCTGAGCTTCCACCATGTTGAGCTGTGGTGCGCTGATGCTGCTTCTGCTGCTGGCAGGTTCTCTTTCGCTCTTGGTGCTCCACTCGCTGCTAGATCTGATCTGTCTACAGGAAATAGCGCTCATGCCTCACTCCTGCTTCGCTCAGGTGCTTTGGCCTTCCTCTTCACCGCTCCATATGCTCCCCCACCTCAGGAGGCTGCTACTGCTGCTGCTACAGCCTCCATTCCAAGCTTCTCAGCTGATGCCGCTAGAACCTTCGCTGCTGCTCATGGACTTGCCGTGAGGTCTGTTGGTGTTCGCGTGGCTGATGCTGCTGAGGCTTTCAGAGTTTCCGTTGCCGGCGGAGCTAGGCCAGCTTTCGCTCCTGCTGATTTGGGACATGGTTTCGGCCTGGCTGAGGTTGAGCTTTACGGTGACGTGGTTCTCCGCTTCGTGTCTTACCCAGATGAGACTGACCTGCCTTTCCTTCCCGGCTTCGAGAGAGTTTCCTCTCCTGGTGCCGTGGATTACGGCCTGACAAGGTTCGACCACGTGGTTGGAAACGTTCCCGAGATGGCTCCAGTGATCGATTACATGAAGGGCTTCCTTGGATTCCATGAGTTCGCCGAGTTCACTGCTGAGGACGTGGGAACCACTGAGTCCGGTTTGAACTCTGTGGTTCTCGCCAACAATTCTGAGGCTGTTTTGCTCCCTCTGAATGAGCCTGTGCATGGAACCAAGAGGAGAAGCCAGATTCAAACTTACCTGGAGTACCACGGTGGCCCTGGAGTTCAGCATATCGCCCTTGCTTCTAATGATGTGTTGCGCACACTCAGAGAGATGCGCGCCAGAACCCCCATGGGAGGTTTCGAGTTCATGGCCCCACCACAGGCTAAGTACTACGAGGGCGTTAGAAGGATTGCTGGAGACGTGTTGAGCGAGGAGCAGATCAAGGAGTGCCAAGAGCTGGGTGTTCTTGTGGATAGGGATGACCAGGGCGTTCTGCTTCAAATTGCCACTAAGCCAGTGGGCGACCGCCCTACATTCTTCCTTGAGATGATTCAAAGAATCGGCTGCATGGAGAAGGATGAGGTTGGACAGGAGTACCAAAAGGGCGGATGCGGTGGCTTCGGAAAGGGTAACTTCAGCGAGTTGTTCAAGTCAATCGAGGACTACGAGAAGAGCCTCGAGGTGAAGCAGTCAGTGGTTGCCCAAAAGTCCTGA",Classification and statistics of the grade of pesticide damage Grade 2,[1]; [3],4
same,Classification and statistics of the grade of pesticide damage Grade 3,[1]; [3],0
same,Resistance evaluation,[1]; mesotrione 420 g ai/ha,Poorly resistant
same,Scores,[1]; mesotrione 420 g ai/ha,50
same,Resistance evaluation,[1]; [4],poorly resistant (poorly resistant plants (scores 34-67))
same,Classification and statistics of the grade of pesticide damage Grade 0,[1]; [5],0
same,Classification and statistics of the grade of pesticide damage Grade 1,[1]; [5],8
same,Classification and statistics of the grade of pesticide damage Grade 2,[1]; [5],8
same,Classification and statistics of the grade of pesticide damage Grade 3,[1]; [5],0
same,tolerance to mesotrione (resistance class),[1]; mesotrione at four-fold field concentration,poorly-resistant
same,tolerance to mesotrione (resistance class),[1]; mesotrione at two-fold field concentration,moderately-resistant
same,Classification and statistics of the grade of pesticide damage: Grade 0,[1]; [6],5
same,Classification and statistics of the grade of pesticide damage: Grade 1,[1]; [6],7
same,Classification and statistics of the grade of pesticide damage: Grade 2,[1]; [6],4
same,Classification and statistics of the grade of pesticide damage: Grade 3,[1]; [6],0
same,Classification and statistics of the grade of pesticide damage: Grade 0,[1]; [4],0
same,Classification and statistics of the grade of pesticide damage: Grade 1,[1]; [4],8
same,Classification and statistics of the grade of pesticide damage: Grade 2,[1]; [4],8
same,Classification and statistics of the grade of pesticide damage: Grade 3,[1]; [4],0
same,Scores,"[1]; pesticide damage score 0-100, mesotrione 210 g ai/ha (two-fold field concentration), 7 DAT, Table 3",31
same,Scores,"[1]; pesticide damage score 0-100, mesotrione 420 g ai/ha (4×), 7 DAT, Table 3",50
same,Classification and statistics of the grade of pesticide damage: Grade 0,[2]; topramezone 100 g ai/ha (4×),16
same,Classification and statistics of the grade of pesticide damage: Grade 1,[2]; topramezone 100 g ai/ha (4×),0
same,Classification and statistics of the grade of pesticide damage: Grade 2,[2]; topramezone 100 g ai/ha (4×),0
same,Classification and statistics of the grade of pesticide damage: Grade 3,[2]; topramezone 100 g ai/ha (4×),0
same,Classification and statistics of the grade of pesticide damage: Grade 0,[2]; topramezone 200 g ai/ha (8×),16
same,Classification and statistics of the grade of pesticide damage: Grade 1,[2]; topramezone 200 g ai/ha (8×),0
same,Classification and statistics of the grade of pesticide damage: Grade 2,[2]; topramezone 200 g ai/ha (8×),0
same,Classification and statistics of the grade of pesticide damage: Grade 3,[2]; topramezone 200 g ai/ha (8×),0
same,Scores,[2]; topramezone 100 g ai/ha (4×),0
same,Scores,[2]; topramezone 200 g ai/ha (8×),0
same,Resistance evaluation,[2]; topramezone 100 g ai/ha (4×),highly resistant (highly resistant plants (scores 0-15))
same,Resistance evaluation,[2]; topramezone 200 g ai/ha (8×),highly resistant (highly resistant plants (scores 0-15))
same,tolerance to topramezone (resistance class),[2]; topramezone at four-fold or eight-fold field concentration,highly-resistant
